One molecule from US20190062442A1 (AstraZeneca / MedImmune, published 2019) can be followed below.

For experiment [1], the target named is T1, FLAG-tagged Cynomolgus PrP^c_N1 (cynomolgus monkey, UniProt P67992 23-111).
T1 sequence: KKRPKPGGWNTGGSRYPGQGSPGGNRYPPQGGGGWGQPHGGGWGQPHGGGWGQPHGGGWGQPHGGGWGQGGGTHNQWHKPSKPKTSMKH
The experiment can be described thus: direct HTRF binding assay. Background: Time-resolved FRET reads energy transfer from a long-lived donor to a nearby acceptor.

The target of experiment [2] is T2, FLAG-tagged human PrP^c_N1 (recombinant N-terminal fragment of cellular prion protein, 23-111 amino-acids) (human, UniProt P04156 23-111).
T2 sequence: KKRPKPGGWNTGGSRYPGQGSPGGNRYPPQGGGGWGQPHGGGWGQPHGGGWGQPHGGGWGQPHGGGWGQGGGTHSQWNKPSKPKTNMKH

The target in experiment [3] is T3, Human PrP^c_N1_Flag His protein (human, UniProt P04156 23-111).
T3 sequence: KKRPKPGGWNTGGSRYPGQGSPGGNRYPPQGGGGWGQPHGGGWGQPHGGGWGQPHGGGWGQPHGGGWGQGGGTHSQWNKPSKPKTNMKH

Experiment [4] concerns the target full length cynomolgus PrP^c present on the cynomolgus CynoMK-1 cell line (cynomolgus monkey, UniProt P67992 23-230). The experiment can be described thus: flow cytometry, antibody at 5 µg/ml. A general note: In flow cytometry, cells or beads pass a laser one at a time.

B1: PrP^c-O0059 Hu IgG1 (antibody, V domains shown)
VH: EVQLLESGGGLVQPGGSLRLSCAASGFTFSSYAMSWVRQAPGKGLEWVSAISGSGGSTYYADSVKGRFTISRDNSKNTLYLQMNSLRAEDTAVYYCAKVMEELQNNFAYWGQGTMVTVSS
VL: QSVLTQPPSASGTPGQRVTISCSGERSDIGINYVSWYQQLPGTAPKLLIYTDDRRPPGVPDRFSASKSGTSASLAISGLRSEDEADYYCEAWHDVLGHPVFGGGTKLTVL
The term IC50 denotes the concentration needed to halve the response being measured. One may read the Kd as the constant that tells how readily two partners part at equilibrium. Low readings indicate tighter binding, high ones weaker binding. As a reminder, the koff is the rate constant with which the complex falls apart. Broadly, the kon is the second-order rate constant of association. High values mean faster complex formation, low ones slower complex formation. For B1, the binding result in experiment [1] is recorded as “binds”. Also, the IC50 in experiment [2] was 0.225 nM. In addition, in experiment [3], the Kd came out at 0.0235 nM, the koff is 1.33e-05 s⁻¹ and the kon was found to be 564000 M⁻¹ s⁻¹. Moreover, the binding result in experiment [4] is “binds”.
